Reference: patent publication US20230340152A1 (published 2023)

Key:
[1] = biological target: T1, Human CD73 ECD (human, UniProt P21589 27-549); assay: binding assay, format not stated
T1 construct: Biotinylated in some assays; also called human CD73 extracellular domain; huCD73
T1 sequence: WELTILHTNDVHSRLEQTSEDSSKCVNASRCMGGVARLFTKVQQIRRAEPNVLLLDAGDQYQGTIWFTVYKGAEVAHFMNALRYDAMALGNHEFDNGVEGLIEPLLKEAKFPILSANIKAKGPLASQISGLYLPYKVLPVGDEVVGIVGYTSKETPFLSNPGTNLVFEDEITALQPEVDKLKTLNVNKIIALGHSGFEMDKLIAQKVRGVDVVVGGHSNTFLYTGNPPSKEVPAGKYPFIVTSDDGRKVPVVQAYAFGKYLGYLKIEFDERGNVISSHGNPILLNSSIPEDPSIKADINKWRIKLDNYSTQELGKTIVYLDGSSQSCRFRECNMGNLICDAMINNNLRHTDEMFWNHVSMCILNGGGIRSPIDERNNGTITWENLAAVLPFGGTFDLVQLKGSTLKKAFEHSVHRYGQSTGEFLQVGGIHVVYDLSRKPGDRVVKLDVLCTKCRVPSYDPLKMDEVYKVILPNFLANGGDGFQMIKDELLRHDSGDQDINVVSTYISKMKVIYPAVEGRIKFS

[2] = biological target: T2, Cynomolgus CD73 ECD (cynomolgus, UniProt A0A2K5V5U7 27-549); assay: binding assay, format not stated
T2 construct: extracellular domain; also called cyno CD73
T2 sequence: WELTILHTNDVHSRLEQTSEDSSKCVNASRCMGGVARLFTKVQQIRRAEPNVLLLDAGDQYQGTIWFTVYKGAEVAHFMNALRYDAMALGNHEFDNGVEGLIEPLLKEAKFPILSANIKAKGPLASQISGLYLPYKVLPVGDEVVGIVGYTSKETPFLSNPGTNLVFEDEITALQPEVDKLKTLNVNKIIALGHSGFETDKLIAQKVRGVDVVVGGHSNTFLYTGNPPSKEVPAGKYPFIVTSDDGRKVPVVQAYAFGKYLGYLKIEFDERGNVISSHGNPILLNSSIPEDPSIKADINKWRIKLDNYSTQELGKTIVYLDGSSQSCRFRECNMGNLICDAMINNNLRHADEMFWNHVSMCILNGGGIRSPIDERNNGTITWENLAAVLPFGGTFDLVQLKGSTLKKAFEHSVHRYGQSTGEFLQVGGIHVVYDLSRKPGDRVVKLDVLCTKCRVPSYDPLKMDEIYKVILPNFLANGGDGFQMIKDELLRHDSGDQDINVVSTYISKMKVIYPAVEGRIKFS

[3] = biological target: T3, Murine CD73 ECD (murine, UniProt Q61503 29-551, limits assumed); assay: binding assay, format not stated
T3 construct: extracellular domain; In-house recombinant ECD; also called murine CD73 extracellular domain; muCD73
T3 sequence (looked up): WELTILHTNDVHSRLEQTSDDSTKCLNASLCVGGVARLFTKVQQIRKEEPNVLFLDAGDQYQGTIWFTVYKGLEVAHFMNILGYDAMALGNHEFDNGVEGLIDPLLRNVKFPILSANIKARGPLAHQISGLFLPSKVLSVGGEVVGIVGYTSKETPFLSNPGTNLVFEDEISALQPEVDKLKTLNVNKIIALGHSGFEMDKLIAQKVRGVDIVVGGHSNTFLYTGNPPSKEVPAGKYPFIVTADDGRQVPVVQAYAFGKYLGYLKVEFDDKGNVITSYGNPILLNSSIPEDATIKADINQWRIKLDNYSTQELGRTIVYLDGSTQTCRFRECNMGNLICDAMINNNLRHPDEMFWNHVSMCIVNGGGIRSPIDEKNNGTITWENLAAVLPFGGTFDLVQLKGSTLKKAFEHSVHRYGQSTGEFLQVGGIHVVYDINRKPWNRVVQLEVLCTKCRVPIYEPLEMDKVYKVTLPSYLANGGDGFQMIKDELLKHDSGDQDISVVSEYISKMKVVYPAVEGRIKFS

[4] = biological target: T4, Human CD73 on cells (MDA-MB-231, Jurkat CD73 knock-in, NCI-H322) (human, UniProt P21589 27-549); assay: cell-based or functional assay
T4 sequence: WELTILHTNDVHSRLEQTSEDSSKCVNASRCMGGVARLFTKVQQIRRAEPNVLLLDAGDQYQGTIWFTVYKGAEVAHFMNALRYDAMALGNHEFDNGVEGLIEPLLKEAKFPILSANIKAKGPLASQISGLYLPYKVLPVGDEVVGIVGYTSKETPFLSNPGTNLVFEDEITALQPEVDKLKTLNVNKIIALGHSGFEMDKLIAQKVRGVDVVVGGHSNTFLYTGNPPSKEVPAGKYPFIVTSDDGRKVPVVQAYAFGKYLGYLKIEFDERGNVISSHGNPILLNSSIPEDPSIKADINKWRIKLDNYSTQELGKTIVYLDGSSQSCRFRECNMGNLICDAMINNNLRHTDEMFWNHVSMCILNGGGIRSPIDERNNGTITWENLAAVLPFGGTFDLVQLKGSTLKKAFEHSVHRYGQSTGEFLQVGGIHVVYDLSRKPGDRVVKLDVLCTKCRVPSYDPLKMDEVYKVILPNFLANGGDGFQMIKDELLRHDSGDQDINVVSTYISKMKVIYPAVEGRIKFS

[5] = biological target: T1, Human CD73 ECD; assay: cell-based or functional assay
[6] = biological target: T1, Human CD73 ECD; assay: direct ELISA, normalized Fab supernatant, vs CD730010 GL9
[7] = biological target: T3, Murine CD73 ECD; assay: as above

Row | Binder | 1/EC50 [1] | 1/EC50 [2] | 1/EC50 [3] | Enzyme Inhibition, MDA-MB-231, 1/EC50 (nM) [4] | Internalization, MDA-MB-231, 1/EC50 (nM) [4] | Enzyme Inhibition, rCD73, 1/EC50 (nM) [5] | ELISA signal, fold improvement over parental antibody [6] | ELISA signal, fold improvement over parental antibody [7]
1 | CD730011 (antibody, V domains shown, IgG1-TM format; also called CD730011 antibody; CD7300011) VH: not shown VL: NFMLTQPHSVSESPGKTVTISCTRSSGSIASKYVQWYQQRPGSSPMAVIYKDNQRSSGVPDRFSGSIDSSSNSASLTISGLKPEDEADYYCQSYDASNYYVFGTGTKVTVL | 0.0021 nM⁻¹ | 0.0027 nM⁻¹ | 0.0015 nM⁻¹ | 0.00068 nM⁻¹ | 0 nM⁻¹ | 0 nM⁻¹ |  | 
2 | CD730042 (antibody, V domains shown, IgG1-TM format; also called CD730042 antibody) VH: GVQLVQSGGGLVQPGGSLRLSCAASGFTFSSYGMHWVRQAPGKGLEWVAVISYDGSIKYYADSVKGRFTISRDDSKNALYLQMNSLRAEDTAVYYCSTLSGSYGYFDYWGRGTLVTVSS VL: QSVLTQPASVSGSPGQSITISCAGTSSDVGGYNYVSWYQQHPGKAPKLMIYEGSKRPSGVSNRFSGSKSGNTASLTISGLQAEDEADYYCSSYTTRSTRVFGGGTKLTVL | 0.0017 nM⁻¹ | 0.0014 nM⁻¹ |  | 0.0032 nM⁻¹ | 0 nM⁻¹ | 0 nM⁻¹ |  | 
3 | CD730021 (antibody, V domains shown, IgG1-TM format; also called CD730021 antibody) VH: QVQLQESGPGLVRPSETLSLTCTVSGGSISSSSYYWAWVRQSPGKGLEWIGNIYYRGSTYYNPSLKSRVTMSVDMSKHQFSLKLSSLNAADTAVYYCASLYSGTYVFDYWGRGTLVTVSS VL: QSVLTQPPSASGTPGQRVTISCSGSRPNIGGNTVNWYQQLPGAAPKLLIYSNSQRPSGVPDRFSGSKYGTSASLAISGLQSDDEADYYCGTWDDSLNGPVFGRGTKLTVL | 0.00085 nM⁻¹ | 0.0012 nM⁻¹ | 0.00057 nM⁻¹ | 0.0095 nM⁻¹ | 0.0011 nM⁻¹ | 0.0011 nM⁻¹ |  | 
4 | CD730004 (antibody, V domains shown, IgG1-TM format; also called CD730004 antibody) VH: not shown VL: NFMLTQPHSVSESPGQTVTISCTRSSGSIASKYVQWYQKRPGSSPTTVIYEDTQRPSGVPDRFSGSIDISSNSASLTISGLRTEDEADYYCQSYDSTNWVFGGGTKVTVL |  |  | 0.00023 nM⁻¹ | 0.06 nM⁻¹ | 0 nM⁻¹ |  |  | 
5 | CD730008 (antibody, IgG1, V domains shown, IgG1-TM format; also called CD730008 antibody) VH: EVQLLETGGGLVQPGGSLRLSCAASGFTFSSYAMSWVRQAPGKGLEWVSAISGSGGSTYYADSVKGRFTISRDNSKNTLYLQMNSLRAEDTAVYYCARGNYGNLDHWGKGTLVTVSS VL: QSVLTQPPSVSVSPGQTASITCSGDKVGDKYASWYQQKPGQSPVLVIYQDRKRPSGIPERFSGSNSGNTATLTISGTQPMDEADYYCQAWDSSHWVFGGGTKLTVL | 0.0011 nM⁻¹ | 0.0011 nM⁻¹ | 0.00058 nM⁻¹ | 0.11 nM⁻¹ | 0 nM⁻¹ | 0 nM⁻¹ |  | 
6 | CD730010 GL9 VH S35H Fab (Fab, name in Kabat numbering, V domains shown, Bacterial Fab, normalized supernatant) VH: EVQLLESGGGLVQPGGSLRLSCAASGFTFSSYAMHWVRQAPGKGLEWVSAISGSGGSTYYADSVKGRFTISRDNSKNTLYLQMNSLRAEDTAVYYCARLGYSTIDYWGRGTLVTVSS VL: not shown |  |  |  |  |  |  | 1.8 fold | 1.1 fold
7 | CD730010 GL9 VH G54W Fab (Fab, name in Kabat numbering, V domains shown, Bacterial Fab, normalized supernatant) VH: EVQLLESGGGLVQPGGSLRLSCAASGFTFSSYAMSWVRQAPGKGLEWVSAISGSWGSTYYADSVKGRFTISRDNSKNTLYLQMNSLRAEDTAVYYCARLGYSTIDYWGRGTLVTVSS VL: not shown |  |  |  |  |  |  | 4.2 fold | 3.7 fold
8 | CD730010 GL9 VH S52W Fab (Fab, name in Kabat numbering, V domains shown, Bacterial Fab, normalized supernatant) VH: EVQLLESGGGLVQPGGSLRLSCAASGFTFSSYAMSWVRQAPGKGLEWVSAIWGSGGSTYYADSVKGRFTISRDNSKNTLYLQMNSLRAEDTAVYYCARLGYSTIDYWGRGTLVTVSS VL: not shown |  |  |  |  |  |  | 8.9 fold | 4.4 fold
9 | CD730010 GL9 VH M34Y Fab (Fab, name in Kabat numbering, V domains shown, Bacterial Fab, normalized supernatant) VH: EVQLLESGGGLVQPGGSLRLSCAASGFTFSSYAYSWVRQAPGKGLEWVSAISGSGGSTYYADSVKGRFTISRDNSKNTLYLQMNSLRAEDTAVYYCARLGYSTIDYWGRGTLVTVSS VL: not shown |  |  |  |  |  |  | 3.9 fold | 2.9 fold
10 | CD730010 GL9 VH M34I Fab (Fab, name in Kabat numbering, V domains shown, Bacterial Fab, normalized supernatant) VH: EVQLLESGGGLVQPGGSLRLSCAASGFTFSSYAISWVRQAPGKGLEWVSAISGSGGSTYYADSVKGRFTISRDNSKNTLYLQMNSLRAEDTAVYYCARLGYSTIDYWGRGTLVTVSS VL: not shown |  |  |  |  |  |  | 1.5 fold | 1.1 fold
11 | CD730010 GL9 VH G54N Fab (Fab, name in Kabat numbering, V domains shown, Bacterial Fab, normalized supernatant) VH: EVQLLESGGGLVQPGGSLRLSCAASGFTFSSYAMSWVRQAPGKGLEWVSAISGSNGSTYYADSVKGRFTISRDNSKNTLYLQMNSLRAEDTAVYYCARLGYSTIDYWGRGTLVTVSS VL: not shown |  |  |  |  |  |  | 8.9 fold | 7.1 fold
12 | CD730010 GL9 VH S56R Fab (Fab, name in Kabat numbering, V domains shown, Bacterial Fab, normalized supernatant) VH: EVQLLESGGGLVQPGGSLRLSCAASGFTFSSYAMSWVRQAPGKGLEWVSAISGSGGRTYYADSVKGRFTISRDNSKNTLYLQMNSLRAEDTAVYYCARLGYSTIDYWGRGTLVTVSS VL: not shown |  |  |  |  |  |  | 5.6 fold | 4.9 fold
13 | CD730046 (antibody, V domains shown, IgG1-TM format; also called CD730046 antibody) VH: QVQLVQSGGGVVQPGRSLRLSCAASGFTFSSYGMHWVRQAPGKGLEWVAVISYDGSIKYYADSVKGRFTISRDNSKNSLFLQMNSLRDDDTATYYCARGHLLRIGDIFYYSLDVWGQGTLVTVSS VL: not shown | 0.0041 nM⁻¹ | 0.01 nM⁻¹ | 0.0052 nM⁻¹ | 0.081 nM⁻¹ | 0 nM⁻¹ | 0 nM⁻¹ |  | 
